For this experiment, the system named is myosin heavy chain in cells. The experiment in a line: cachexia functional assay (levels of myosin heavy chain in treated cells). The format is cell-based. The following applies: for cachexia-inducing activity of RAGE ligands: FIG. 8. An excerpt:
The compounds that are thus designed or selected may further be tested in an in vitro, in vivo, or ex vivo assays to determine if they regulate RAGE. Such assays are known to one skilled in the art. In some embodiments, the assay is a cachexia functional assay as described herein and further described in PCT/US2014/068631, which is incorporated herewith in its entirety.
In studies described herein below, a refined model of the cachectic signal was obtained (FIG. 2). Functional sites on the RAGE polypeptide were determined using a combination of experiments mapping binding interface(s) of anti-RAGE antibodies with RAGE polypeptide using hydrogen-deuterium exchange (HDEX) reactions and cachexia functional assays. As described elsewhere herein, results of the cachexia functional assay indicate whether a candidate agent (e.g., a particular anti-RAGE antibody) has cachexia-inhibitory or cachexia-inducing activity, as measured, for example, by levels of myosin heavy chain in cells treated with the candidate agent relative to a control or baseline myosin heavy chain level.

With `CCCCCC(=Cc1ccccc1)CN(CCc1c[nH]c2ccccc12)C(=O)c1ccc(Cl)c([N+](=O)[O-])c1` [FPS3, reference compound], the “cachexia-inhibitory activity (levels of myosin heavy chain)” value (cells treated with various concentrations of FPS3 (FIG. 7B)) was “had cachexia-inhibitory activity”.

B1: S100B: RAGE ligand, non-cachexia-inducing (protein)
chain: SELEKAMVALIDVFHQYSGREGDKHKLKKSELKELINNELSHFLEEIKEQEVVDKVMETLDNDGDGECDFQEFMAFVAMVTTACHEFFEHE
In the case of B1, the “cachexia-inducing activity of RAGE ligands” value (“cachexia-inducing activity” for short) is recorded as “non-cachexia-inducing”.

B2: S100P: RAGE ligand, non-cachexia-inducing (protein)
chain: MTELETAMGMIIDVFSRYSGSEGSTQTLTKGELKVLMEKELPGFLQSGKDKDAVDKLLKDLDANGDAQVDFSEFIVFVAAITSACHKYFEKAGLK
B2: the “cachexia-inducing activity” value is listed as “non-cachexia-inducing”.

B3: S100A8/9: RAGE ligand, cachexia-inducing (protein)
chain 1: MLTELEKALNSIIDVYHKYSLIKGNFHAVYRDDLKKLLETECPQYIRKKGADVWFKELDINTDGAVNFQEFLILVIKMGVAAHKKSHEESHKE
chain 2: MTCKMSQLERNIETIINTFHQYSVKLGHPDTLNQGEFKELVRKDLQNFLKKENKNEKVIEHIMEDLDTNADKQLSFEEFIMLMARLTWASHEKMHEGDEGPGHHHKPGLGEGTP
As for B3, the “cachexia-inducing activity” value was “cachexia-inducing”.

B4: S100A7: RAGE ligand, cachexia-inducing; sequence NP_002954.2 (protein)
chain: MSNTQAERSIIGMIDMFHKYTRRDDKIEKPSLLTMMKENFPNFLSACDKKGTNYLADVFEKKDKNEDKKIDFSEFLSLLGDIATDYHKQSHGAAPCSGGSQ
For B4, the “cachexia-inducing activity” value is reported as “cachexia-inducing”.

For the origin of these results see patent publication US11111296B2, “Compositions and methods for treating cardiac dysfunction” (THE BROAD INSTITUTE, INC., priority 2015, dated 2021).
